This assay has as its target murine IL-21 (mIL-21) (murine, UniProt Q9ES17 18-146). In words: BLI.

B1: biotinylated murine IL-21 receptor (mIL-21R) (receptor)
chain: not shown
modifications: biotinylated (site not stated)
As for B1, the binding result was “binds”.

Source of the values: paper doi:10.1101/2024.12.06.626481 (bioRxiv, 2024).
